Laboratory results: patent publication US20200181262A1 (published 2020)
Substitutions are numbered along the chain they refer to. “And” between values parts separate entries of the source, which are not always exact repeats. Equal entries are not always repeated. One block for each binder: values may come before it.

How the values were obtained:
[1] = target: T1, FcRn (analyte of the BIACORE studies of Tables 9-11, tables titled anti-human FcRn mAbs) (human, UniProt P55899 24-290; P61769 21-119); assay: SPR, antibody captured on protein A, FcRn 50-0.02 nM, 1:1 model
T1 construct: also called analyte (FcRn)
Description: For kinetic analysis, a 2-fold dilution range was selected from 50-0.02 nM FcRn. The association phase of FcRn analyte was monitored for 450 seconds, and dissociation was measured for 1500 seconds, at 40 μl/min. Fc1 was a reference channel and was subtracted from other flow cells to correct for non-specific binding. Kinetic values are based on a 1:1 binding model (Table 11).

[2] = target: T2, monomeric His-tagged human FcRn (hFcRn) (JTA) (human, UniProt P55899 24-290; P61769 21-119, limits assumed); assay: SPR (Biacore 3000), mAb amine-coupled, His-tagged hFcRn injected, 1:1 Langmuir, pH 6.0
T2 construct: In-house soluble His-tagged FcRn; also called monomeric human FcRn produced in-house; not shown: His tag

[3] = target: T2, monomeric His-tagged human FcRn (hFcRn) …; assay: SPR (Biacore 3000), mAb amine-coupled, His-tagged hFcRn injected, 1:1 Langmuir, pH 7.4
Description: The coupling was performed by injecting 3 μg/ml of each protein into 10 mM sodium acetate, pH 4.5 (GE Healthcare), using the amine coupling kit (GE Healthcare). […] All SPR experiments were conducted at 25° C. with a flow rate of 40 μl/min. Binding data were zero-adjusted, and the reference cell value subtracted. The Langmuir 1:1 ligand binding model provided by the BIAevaluation software (version 4.1) was used to determine the binding kinetics. The closeness of the fit is described by the statistical value χ².

[4] = target: T1, FcRn (analyte of the BIACORE studies of …); assay: SPR (BIACORE), antibody immobilized on CM5, FcRn injected, 1:1 Langmuir, pH 6.0
Description: Antibodies were diluted into 10 mM NaAc, pH 4.5, and immobilized onto BIACORE® CM5 chips to RU levels of approximately 500-1000. Analysis was performed by injection of FcRn at concentrations of 12-800 nM in 1×PBS-P at pH 7.4 or pH 6.0.

[5] = target: T1, FcRn (analyte of the BIACORE studies of …); assay: SPR (BIACORE), antibody captured on protein A CM5 chip, FcRn analyte
Excerpt: Antibodies were captured on a CM5 chip coated with protein A and analyte (FcRn) flowed over the surface.

[6] = target: human FcRn as expressed in cells (human whole blood; hFcRn transgenic mice) (human, UniProt P55899 24-365; P61769 21-119); assay: cell-based or functional assay
[7] = target: T2, monomeric His-tagged human FcRn (hFcRn) …; assay: SPR (Biacore 3000), mAb amine-coupled, His-tagged hFcRn (JTA) injected, 1:1 Langmuir, pH 6.0
Description: In a further study, surface plasmon resonance (SPR) was conducted using a Biacore 3000 instrument (GE Healthcare) with CM5 sensor chips coupled with antibodies (˜550 resonance units (RU)) using amine-coupling chemistry as described by the manufacturer. […] All SPR experiments were conducted at 25° C. with a flow rate of 40 μl/min. Binding data were zero-adjusted, and the reference cell value subtracted. The Langmuir 1:1 ligand binding model provided by the BIAevaluation software (version 4.1) was used to determine the binding kinetics. The closeness of the fit is described by the statistical value χ2.

[8] = target: T3, cynomolgus FcRn (cFcRn) obtained from SINO Biological Inc (cynomolgus monkey, UniProt Q8SPV9 24-297; Q8SPW0 21-119); assay: SPR (Biacore 3000), H3Vk2 amine-coupled, cynomolgus FcRn (SINO) injected, 1:1 Langmuir, pH 7.4
T3 construct: also called pFcRn (SINO); pFeltn (SINO)
T3 sequence (Q8SPV9 24-297 limits assumed, chain 1 of 2): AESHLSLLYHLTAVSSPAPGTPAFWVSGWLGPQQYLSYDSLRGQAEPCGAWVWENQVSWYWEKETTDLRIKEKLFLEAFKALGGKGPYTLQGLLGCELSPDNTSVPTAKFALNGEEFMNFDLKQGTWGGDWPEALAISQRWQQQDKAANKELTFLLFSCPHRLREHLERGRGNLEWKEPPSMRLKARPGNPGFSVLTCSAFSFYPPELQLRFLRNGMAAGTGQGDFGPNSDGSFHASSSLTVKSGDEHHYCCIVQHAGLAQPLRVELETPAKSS
T3 sequence (Q8SPW0 21-119 limits assumed, chain 2 of 2): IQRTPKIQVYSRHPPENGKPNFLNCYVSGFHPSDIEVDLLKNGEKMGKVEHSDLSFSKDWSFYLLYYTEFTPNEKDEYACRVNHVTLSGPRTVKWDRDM
Description: (§1) All SPR experiments were conducted at 25° C. with a flow rate of 40 μl/min. Binding data were zero-adjusted, and the reference cell value subtracted. The Langmuir 1:1 ligand binding model provided by the BIAevaluation software (version 4.1) was used to determine the binding kinetics. The closeness of the fit is described by the statistical value χ2.

[9] = target: T2, monomeric His-tagged human FcRn (hFcRn) …; assay: SPR (Biacore 3000), H3Vk2 amine-coupled, hFcRn (JTA) injected, 1:1 Langmuir, pH 7.4
Description: as §1

Kd [1]: 0.39 nM and 0.4 nM
kon [1]: 318000 M⁻¹ s⁻¹
Kd [2]: 7.4 nM
kon [2]: 85000 M⁻¹ s⁻¹
Kd [3]: 4.9 nM
kon [3]: 61000 M⁻¹ s⁻¹
B1: G9VH1_Vκ2 antibody (antibody, V domains shown)
VH: QVQLVQSGAELKKPGASVKLSCKASGYTFTSYGISWVKQATGQGLEWIGEIYPRSGNTYYNEKFKGRATLTADKSTSTAYMELRSLRSEDSAVYFCARSTTVSPPRVWGTGTTVTVSS
VL: DIQMTQSPSSLSASVGDRVTITCKASDHINNWLAWYQQKPGQAPRLLISGATSLETGVPSRFSGSGTGKDYTLTISSLQPEDFATYYCQQYWSTPYTFGGGTKVEIK
notes: also called G9Vκ2

Kd [4]: 0.6 nM
Kd [5]: 0.84 nM
B2: VH1_G9/Vκ2_E8 IgG4 (antibody, V domains shown)
VH: B1 VH
VL: B1 VL with P80T, Q89H, W92Y
notes: bivalent IgG4, kappa; also called G9VH1_E8Vκ2; G9VH1E8Vκ2

Kd [2]: 3.8 nM
plasma concentration of HuLys11 (human IgG1) in hFcRn transgenic mice after 20 mg/kg [6]: 3 fold
Kd [7]: 3.8 nM
Kd [8]: 11.9 nM
Kd [3]: 5.1 nM
Kd [9]: 4.6 nM
B3: H3VH1_Vκ2 antibody (anti-FcRn mAb H3Vκ2) (antibody, V domains shown)
VH: B1 VH with S103R, R106G, V107I
VL: B1 VL
notes: also called H3Vk2; H3VK2
